B1: LINE1-full (parent)
chain: UACGUAGGUGGUUUUCCCCUGAUAGUGCUAAGGGGGCCUGGAAGUUUGGACUGGGCAGAGCUCAACACAGCGUGGCAAAGUGGCUGUGGCUAGACUGCCUCUCUGGAUUCCUCGUCACUCAGCAGGGCAUCUCUGAGAGAAAUGCC

The data set covers variants of B1. Briefly: self-cleavage, relative activity (ratio to wild type); higher = more cleavage; in vitro, sequencing; the parent is a self-cleaving ribozyme.
Turning to A59U A79C, the self-cleavage turned out to be 1.23.

Take A59U G89A: the self-cleavage is 0.04.

As to C61U U91C, the self-cleavage came out at 0.03.

For the variant U62C A121C, the self-cleavage was 0.15.

With A59G A107G, the self-cleavage was determined as 0.09.

For the variant G60A C68U, the self-cleavage was 0.03.

For A59U U115C, the self-cleavage is 1.34.

A59C A117G: the self-cleavage stood at 2.7.

In the case of G60A A77G, the self-cleavage amounted to 0.03.

On to A59G U73A, for which the self-cleavage amounted to 0.08.

Regarding A59G U73G, the self-cleavage was found to be 0.12.

With C63U A77G, the self-cleavage was 0.62.

In the case of C61U A77G, the self-cleavage turned out to be 0.06.

For the variant U62C A94U, the self-cleavage stood at 0.08.

Take U62A U91C: the self-cleavage is 0.04.

For C61A U102C, the self-cleavage turned out to be 0.05.

With U62C G82A, the self-cleavage is 0.04.

Take A59G A124G: the self-cleavage worked out at 0.13.

Turning to U62C C120U, the self-cleavage was 0.06.

With G60A C111G, the self-cleavage came to 0.02.

As to G60A C111U, the self-cleavage was 0.04.

In the case of A59G A78U, the self-cleavage was determined as 0.1.

Take U62C U100A: the self-cleavage worked out at 0.05.

On to U62C A124G, for which the self-cleavage worked out at 0.08.

On to C63U A136G, for which the self-cleavage turned out to be 0.34.

Turning to A59G G114U, the self-cleavage turned out to be 0.07.

C61U A67G: the self-cleavage came out at 1.08.

Take A59G U102C: the self-cleavage was determined as 0.1.

In the case of A59G U102A, the self-cleavage was 0.

Turning to A59U A64U, the self-cleavage stood at 0.62.

For A59G G97A, the self-cleavage worked out at 0.03.

As for A59G U62C, the self-cleavage is 0.1.

In the case of A59G U62A, the self-cleavage stood at 0.06.

Consider A59G A138G, for which the self-cleavage is 0.1.

On to A59C U73A, for which the self-cleavage was determined as 1.45.

Regarding A59G A65U, the self-cleavage worked out at 0.08.

For U62A C71U, the self-cleavage is 0.

As for U62A C71G, the self-cleavage stood at 0.05.

For the variant A59C C146U, the self-cleavage was found to be 1.23.

In the case of C61U U73C, the self-cleavage stood at 0.02.

C61G A124U: the self-cleavage came out at 0.11.

Regarding U62A C131U, the self-cleavage was 0.02.

Consider G60C U73C, for which the self-cleavage stood at 0.04.

As to U62A A107G, the self-cleavage is 0.06.

U62C A92G: the self-cleavage was 0.04.

Regarding U62C A92U, the self-cleavage came to 0.04.

For G60A A94G, the self-cleavage was determined as 0.

For G60A A94C, the self-cleavage amounted to 0.01.

Take U62G A78G: the self-cleavage was 0.06.

For C63A A64G, the self-cleavage is 0.02.

For the variant C63U A129U, the self-cleavage was 0.54.

Consider U62A U87A, for which the self-cleavage was 0.04.

Turning to U62C G125A, the self-cleavage is 0.06.

Take G60A U96A: the self-cleavage came to 0.03.

For the variant G60A U96C, the self-cleavage was 0.01.

As to A59G, the self-cleavage worked out at 0.09.

Regarding A59C, the self-cleavage is 0.96.

For A59U, the self-cleavage is 0.8.

As to A59G U87A, the self-cleavage worked out at 0.06.

A59G U87C: the self-cleavage is 0.11.

For A59G U87G, the self-cleavage was 0.

Take A59G C133G: the self-cleavage worked out at 0.12.

Consider U62C A117G, for which the self-cleavage came to 0.1.

For the variant U62C A117C, the self-cleavage amounted to 0.03.

As to U62C A117U, the self-cleavage amounted to 0.03.

With A59G C113A, the self-cleavage was determined as 0.07.

Take A59G C113U: the self-cleavage turned out to be 0.06.

As to C61G U100C, the self-cleavage was determined as 0.06.

On to U62C U112G, for which the self-cleavage stood at 0.

On to U62C U112A, for which the self-cleavage amounted to 0.05.

A59U U85A: the self-cleavage came to 0.1.

For A59U U85C, the self-cleavage is 0.16.

For the variant A59U A121U, the self-cleavage stood at 0.79.

For the variant G60A A138U, the self-cleavage came to 0.05.

C61U G105A: the self-cleavage amounted to 0.02.

Turning to A59G U109A, the self-cleavage stood at 0.09.

As for A59G C90U, the self-cleavage was found to be 0.03.

For U62C G72U, the self-cleavage was determined as 0.03.

As for U62C G72C, the self-cleavage is 0.03.

On to C63A A117G, for which the self-cleavage was 0.08.

With U62C U81A, the self-cleavage turned out to be 0.04.

Regarding U62C U81C, the self-cleavage was determined as 0.05.

In the case of C63A A142U, the self-cleavage was found to be 0.05.

In the case of C63A A142G, the self-cleavage stood at 0.06.

On to C63A A124U, for which the self-cleavage was 0.03.

As for G60A A121U, the self-cleavage was 0.1.

Turning to C63A U119C, the self-cleavage is 0.02.

For the variant G60U A65U, the self-cleavage was determined as 0.02.

Regarding G60A U62A, the self-cleavage came out at 0.01.

Regarding A59U U130C, the self-cleavage was 0.63.

As to A59G A79U, the self-cleavage came out at 0.07.

As to U62A A67U, the self-cleavage amounted to 0.06.

Consider U62A A67G, for which the self-cleavage was 0.07.

With U62C A65G, the self-cleavage turned out to be 0.1.

With C63U A124G, the self-cleavage came out at 0.09.

Regarding A59U U73A, the self-cleavage worked out at 0.94.

Consider U62C U102C, for which the self-cleavage was 0.06.

With U62G, the self-cleavage was determined as 0.05.

Regarding U62A, the self-cleavage amounted to 0.04.

U62C: the self-cleavage was 0.05.

As to U62C A107G, the self-cleavage was 0.06.

For the variant C61A A78G, the self-cleavage came to 0.04.

For C63U G74A, the self-cleavage is 0.22.

For C63U A140G, the self-cleavage worked out at 0.25.

As to U62G C113U, the self-cleavage turned out to be 0.1.

Consider U62A A141U, for which the self-cleavage turned out to be 0.01.

On to A59G C76U, for which the self-cleavage amounted to 0.12.

On to U62G U104C, for which the self-cleavage is 0.08.

On to U62C G93A, for which the self-cleavage stood at 0.06.

In the case of C61U U102C, the self-cleavage was found to be 0.03.

Consider C63U U85G, for which the self-cleavage was 0.1.

C63U U85C: the self-cleavage amounted to 0.08.

As for A59G C84A, the self-cleavage is 0.04.

On to U62C U96A, for which the self-cleavage is 0.03.

For the variant U62C U96G, the self-cleavage was 0.

As to U62C U132C, the self-cleavage turned out to be 0.06.

For the variant C63U U81C, the self-cleavage came out at 0.4.

Regarding C63U C123U, the self-cleavage was 0.38.

Take A59U U108C: the self-cleavage was 1.09.

Turning to A59U U108G, the self-cleavage is 0.84.

In the case of G60U A64U, the self-cleavage amounted to 0.05.

For A59U G126A, the self-cleavage amounted to 0.59.

In the case of U62A U143A, the self-cleavage came out at 0.04.

As for C63A, the self-cleavage was 0.06.

With C63U, the self-cleavage amounted to 0.36.

In the case of C63G, the self-cleavage stood at 0.09.

Consider A59G U104C, for which the self-cleavage came out at 0.15.

With A59G U104G, the self-cleavage is 0.08.

For the variant U62G A69U, the self-cleavage stood at 0.05.

Consider U62A A140U, for which the self-cleavage worked out at 0.03.

Take U62A A140G: the self-cleavage was 0.04.

As for A59G A136U, the self-cleavage amounted to 0.09.

Regarding A59U A124U, the self-cleavage is 0.68.

With A59U A124G, the self-cleavage stood at 0.75.

Turning to A59G C103U, the self-cleavage was determined as 0.06.

As to G60A U109C, the self-cleavage stood at 0.02.

Take U62C U130A: the self-cleavage was found to be 0.07.

For A59G G80A, the self-cleavage was 0.08.

C61A A94G: the self-cleavage was 0.04.

For the variant U62A A77G, the self-cleavage was 0.07.

For U62A A77U, the self-cleavage was found to be 0.01.

G60A U100C: the self-cleavage came out at 0.03.

U62C U143G: the self-cleavage is 0.08.

In the case of A59C A142G, the self-cleavage was determined as 0.57.

A59G U108A: the self-cleavage turned out to be 0.11.

A59G U108C: the self-cleavage worked out at 0.11.

As to U62G A129G, the self-cleavage stood at 0.15.

On to A59G G106A, for which the self-cleavage is 0.06.

On to A59G C95A, for which the self-cleavage worked out at 0.01.

Regarding U62A U108C, the self-cleavage worked out at 0.04.

Consider A59C A67G, for which the self-cleavage stood at 0.

In the case of A59U A67G, the self-cleavage was 0.39.

C61U U96C: the self-cleavage came out at 0.03.

As to A59G U119A, the self-cleavage was 0.09.

As to A59G U119C, the self-cleavage was determined as 0.13.

For G60A U115C, the self-cleavage worked out at 0.04.

On to U62A U119C, for which the self-cleavage amounted to 0.03.

Take U62C C111U: the self-cleavage was 0.02.

Consider U62C U73C, for which the self-cleavage worked out at 0.07.

For the variant G60A A124G, the self-cleavage came to 0.05.

With U62C A129C, the self-cleavage was 0.19.

For C61G A77U, the self-cleavage was 0.04.

Consider U62C U91A, for which the self-cleavage turned out to be 0.08.

As for U62C U91C, the self-cleavage was found to be 0.04.

For the variant C61A U62C, the self-cleavage was 0.08.

As to U62C C71U, the self-cleavage was found to be 0.05.

On to U62C C133A, for which the self-cleavage is 0.06.
